Laboratory results published in patent US20190316116A1 (MONASH UNIVERSITY, published 2019).

Target: lysozyme (UniProt P00698 19-147)
Assay: method not stated (data not shown)

Sequence of lysozyme (P00698 19-147 limits assumed): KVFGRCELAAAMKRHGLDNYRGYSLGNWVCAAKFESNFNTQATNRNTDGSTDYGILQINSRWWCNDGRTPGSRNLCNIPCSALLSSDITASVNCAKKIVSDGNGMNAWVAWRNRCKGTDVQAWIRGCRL

B1: FN3con.DE0.4.1_graft_v1 (designed binder)
chain: PSPPGNLRVTDVTSTSVTLSWRGYPWATGYRVEYREAGGEWKEVTVPGDLSHRYTVTGLKPGTEYEFRVRAVNRVGRTFDTPGPSSVSVTT
notes: Made by gene synthesis, expressed in E. coli and purified; also called the designed graft; the graft
Kd: ~100 µM
